Key:
[1] = target: T1, OsLHY (Oryza sativa, UniProt A0A0P0XBU0 1-719); test: EMSA
[2] = target: T1, OsLHY; test: competition
[3] = target: T1, OsLHY; test: competition; remark: listed apart in the source
[4] = target: T2, OsNAC15 (Oryza sativa, UniProt K9LKF1 1-301); test: EMSA
T2 sequence: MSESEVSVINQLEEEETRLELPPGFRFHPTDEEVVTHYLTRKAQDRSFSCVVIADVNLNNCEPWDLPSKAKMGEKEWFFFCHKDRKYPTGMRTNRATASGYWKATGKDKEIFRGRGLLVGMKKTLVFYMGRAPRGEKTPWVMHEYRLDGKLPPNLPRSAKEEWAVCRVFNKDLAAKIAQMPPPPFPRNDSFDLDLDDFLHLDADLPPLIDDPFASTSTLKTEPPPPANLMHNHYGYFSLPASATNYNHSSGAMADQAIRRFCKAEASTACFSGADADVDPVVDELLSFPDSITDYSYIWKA

T1 sequence (A0A0P0XBU0 whole entry): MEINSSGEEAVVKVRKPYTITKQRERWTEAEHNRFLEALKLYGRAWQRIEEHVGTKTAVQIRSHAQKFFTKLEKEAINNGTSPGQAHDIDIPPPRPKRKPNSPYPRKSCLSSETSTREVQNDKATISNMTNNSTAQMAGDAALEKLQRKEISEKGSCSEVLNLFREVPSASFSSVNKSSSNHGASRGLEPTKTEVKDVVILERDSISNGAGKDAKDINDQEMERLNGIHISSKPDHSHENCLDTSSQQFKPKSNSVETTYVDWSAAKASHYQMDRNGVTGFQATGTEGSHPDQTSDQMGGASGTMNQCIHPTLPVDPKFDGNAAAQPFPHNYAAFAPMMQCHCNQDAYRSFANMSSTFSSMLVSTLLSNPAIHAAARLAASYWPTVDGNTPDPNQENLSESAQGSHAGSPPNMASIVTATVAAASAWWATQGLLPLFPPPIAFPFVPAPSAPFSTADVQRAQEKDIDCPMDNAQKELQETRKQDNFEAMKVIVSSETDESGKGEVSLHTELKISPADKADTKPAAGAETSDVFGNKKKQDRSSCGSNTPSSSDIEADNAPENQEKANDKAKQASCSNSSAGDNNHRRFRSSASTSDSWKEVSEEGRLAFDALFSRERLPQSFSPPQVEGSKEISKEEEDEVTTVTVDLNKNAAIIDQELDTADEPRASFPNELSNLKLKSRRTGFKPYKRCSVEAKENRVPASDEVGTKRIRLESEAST

B1: OsLHY Bio-probe, 3x AAGATATTT (dsDNA)
DNA 1: AAGATATTTAAGATATTTAAGATATTT
DNA 2: AAATATCTTAAATATCTTAAATATCTT
B1: binds [1].

B2: OsLHY Cold probe, 3x AAGATATTT (dsDNA)
DNA 1: AAGATATTTAAGATATTTAAGATATTT
DNA 2: AAATATCTTAAATATCTTAAATATCTT
B2: binds [2].

B3: OsLHY mCold probe, 3x AAGGCGCCC (dsDNA)
DNA 1: AAGGCGCCCAAGGCGCCCAAGGCGCCC
DNA 2: GGGCGCCTTGGGCGCCTTGGGCGCCTT
B3: no binding [3].

B4: OsNAC15 Bio-probe, 3x AGCAAGA (dsDNA)
DNA 1: AGCAAGAAGCAAGAAGCAAGA
DNA 2: TCTTGCTTCTTGCTTCTTGCT
B4: binds [4].
